T1: GST-CDK5RAP3 (human, UniProt Q96JB5 1-506)
T1 sequence: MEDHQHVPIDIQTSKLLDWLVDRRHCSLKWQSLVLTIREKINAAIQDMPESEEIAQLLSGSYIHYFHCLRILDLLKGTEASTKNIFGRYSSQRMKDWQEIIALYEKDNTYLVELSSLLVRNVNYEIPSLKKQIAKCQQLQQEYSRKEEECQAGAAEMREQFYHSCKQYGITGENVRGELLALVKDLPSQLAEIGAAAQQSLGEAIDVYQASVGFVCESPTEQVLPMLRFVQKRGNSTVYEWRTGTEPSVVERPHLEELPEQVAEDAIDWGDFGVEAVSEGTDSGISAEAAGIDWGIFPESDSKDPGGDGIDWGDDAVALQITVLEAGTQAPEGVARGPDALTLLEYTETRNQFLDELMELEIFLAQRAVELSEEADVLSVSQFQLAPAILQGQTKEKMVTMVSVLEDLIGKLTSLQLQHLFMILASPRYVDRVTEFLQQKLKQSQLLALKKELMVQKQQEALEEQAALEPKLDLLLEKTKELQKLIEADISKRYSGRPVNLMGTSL

B1: recombinant UFC1 (enzyme)
chain: MADEATRRVVSEIPVLKTNAGPRDRELWVQRLKEEYQSLIRYVENNKNADNDWFRLESNKEGTRWFGKCWYIHDLLKYEFDIEFDIPITYPTTAPEIAVPELDGKTAKMYRGGKICLTDHFKPLWARNVPKFGLAHLMALGLGPWLAVEIPDLIQKGVIQHKEKCNQ

Key:
recombinant UFC1 = biological target: B1; test: ITC
GST-CDK5RAP3 = biological target: T1, GST-CDK5RAP3; test: pull-down

Kd (recombinant UFC1)	binding result (GST-CDK5RAP3)	Binder
410 nM		MADAWEEIRRLAADFQRAQFA [UFL1^UBS peptide, UFL1(1-21)]
	binds	B1

From publication doi:10.1101/2023.02.16.528878 (bioRxiv, 2023)
